The values below come from patent US20050032145A1, “Methods for measuring activity of glutamine:fructose 6-phosphate amidotransferase and activity of inhibitors thereof” (priority 2002, published 2005).

By Km is commonly meant the concentration of substrate that gives half-maximal velocity.

Substrate in series [1]: O=C(CO)[C@@H](O)[C@H](O)[C@H](O)COP(=O)(O)O
The experiment in a line: Substrate Km determination, Lineweaver-Burk plot (GFAT-alpha). The class given is biochemical, human. The following applies: other: extracts from transfected SF9 insect cells, other substrate at saturating levels. The method, then:
(§1) FIG. 3 illustrates the effect of varying concentrations of the substrates glutamine and fructose 6-phosphate on the enzyme activity of GFAT-alpha and GFAT-beta. FIG. 3A is a graph illustrating incubation with 10 μl glutamine 200 mM+10 μl fructose 6-phosphate 3.125, 6.25, 12.5, 25, 50, 100, and 200 mM. FIG. 3B is a graph illustrating incubation with 10 μl fructose 6-phosphate 200 mM+10 μl glutamine 3.125, 6.25, 12.5, 25, 50, 100, and 200 mM. 10 μl of GFAT-alpha and 5 μl of GFAT-beta extracts from transfected SF9 insect cells are incubated with 1) 10 μl glutamine 200 mM+10 μl fructose 6-phosphate 3.125, 6.25, 12.5, 25, 50, 100, and 200 mM, and 2) 10 μl fructose 6-phosphate 200 mM+10 μl glutamine 3.125, 6.25, 12.5, 25, 50, 100, and 200 mM in an incubation media containing 10 μl PBS 10×, 10 μl EDTA 50 mM, 10 μl, DTT 10 mM and water to 100 μl. The plate is sealed with a Costar plate sealer and incubated for 60 minutes at 37° C. by floating on a water bath. Additional incubation mixture is kept on ice to add to standard and control samples. […] After a 20-minute incubation at 37° C., the OD is determined for each well at 585 nm. […]
(§2) FIG. 3C is a table illustrating the Km values of the substrates for the GFAT-alpha and GFAT-beta enzymes calculated from the data generated in FIGS. 3A and 3B. […]

Substrate in series [2]: NC(=O)CC[C@H](N)C(=O)O
Described as above. Format: biochemical, human. Conditions: other: extracts from transfected SF9 insect cells, other substrate at saturating levels. The procedure: as §1, §2

B1: GFAT-alpha (Homo sapiens; I57T) (protein)
chain: MCGIFAYLNYHVPRTRREILETLIKGLQRLEYRGYDSAGVGFDGGNDKDWEANACKTQLIKKKGKVKALDEEVHKQQDMDLDIEFDVHLGIAHTRWATHGEPSPVNSHPQRSDKNNEFIVIHNGIITNYKDLKKFLESKGYDFESETDTETIAKLVKYMYDNRESQDTSFTTLVERVIQQLEGAFALVFKSVHFPGQAVGTRRGSPLLIGVRSEHKLSTDHIPILYRTGKDKKGSCNLSRVDSTTCLFPVEEKAVEYYFASDASAVIEHTNRVIFLEDDDVAAVVDGRLSIHRIKRTAGDHPGRAVQTLQMELQQIMKGNFSSFMQKEIFEQPESVVNTMRGRVNFDDYTVNLGGLKDHIKEIQRCRRLILIACGTSYHAGVATRQVLEELTELPVMVELASDFLDRNTPVFRDDVCFFLSQSGETADTLMGLRYCKERGALTVGITNTVGSSISRETDCGVHINAGPEIGVASTKAYTSQFVSLVMFALMMCDDRISMQERRKEIMLGLKRLPDLIKEVLSMDDEIQKLATELYHQKSVLIMGRGYHYATCLEGALKIKEITYMHSEGILAGELKHGPLALVDKLMPVIMIIMRDHTYAKCQNALQQVVARQGRPVVICDKEDTETIKNTKRTIKVPHSVDCLQGILSVIPLQLLAFHLAVLRGYDVDFPRNLAKSVTVE
notes: made in house; host or cells: SF9 insect cells (sonicated, centrifuged cell extract)
Consider B1, for which the figures for the Km in series [1] and in series [2] were 1850 µM and 1490 µM, respectively.
